This passage reports Kd results from paper PMC1410913 (Nucleic Acids Research, 2006).

B1: wild-type FokI restriction endonuclease (enzyme, UniProt P14870 1-579, looked up)
chain: MVSKIRTFGWVQNPGKFENLKRVVQVFDRNSKVHNEVKNIKIPTLVKESKIQKELVAIMNQHDLIYTYKELVGTGTSIRSEAPCDAIIQATIADQGNKKGYIDNWSSDGFLRWAHALGFIEYINKSDSFVITDVGLAYSKSADGSAIEKEILIEAISSYPPAIRILTLLEDGQHLTKFDLGKNLGFSGESGFTSLPEGILLDTLANAMPKDKGEIRNNWEGSSDKYARMIGGWLDKLGLVKQGKKEFIIPTLGKPDNKEFISHAFKITGEGLKVLRRAKGSTKFTRVPKRVYWEMLATNLTDKEYVRTRRALILEILIKAGSLKIEQIQDNLKKLGFDEVIETIENDIKGLINTGIFIEIKGRFYQLKDHILQFVIPNRGVTKQLVKSELEEKKSELRHKLKYVPHEYIELIEIARNSTQDRILEMKVMEFFMKVYGYRGKHLGGSRKPDGAIYTVGSPIDYGVIVDTKAYSGGYNLPIGQADEMQRYVEENQTRNKHINPNEWWKVYPSSVTEFKFLFVSGHFKGNYKAQLTRLNHITNCNGAVLSVEELLIGGEMIKAGTLTLEEVRRKFNNGEINF

Data set [1] deals with the molecule itself. As to the kind of experiment: single-turnover enzyme kinetics.
Data set [2] deals with B1. As to the kind of experiment: steady-state enzyme kinetics.

Consider B1, for which the Kd (in general, the constant that tells how readily two partners part at equilibrium) in data set [1] came out at 99 ± 19 nM.

B2: N13Y variant of the FokI endonuclease (enzyme, UniProt P14870 1-579, looked up)
chain: MVSKIRTFGWVQYPGKFENLKRVVQVFDRNSKVHNEVKNIKIPTLVKESKIQKELVAIMNQHDLIYTYKELVGTGTSIRSEAPCDAIIQATIADQGNKKGYIDNWSSDGFLRWAHALGFIEYINKSDSFVITDVGLAYSKSADGSAIEKEILIEAISSYPPAIRILTLLEDGQHLTKFDLGKNLGFSGESGFTSLPEGILLDTLANAMPKDKGEIRNNWEGSSDKYARMIGGWLDKLGLVKQGKKEFIIPTLGKPDNKEFISHAFKITGEGLKVLRRAKGSTKFTRVPKRVYWEMLATNLTDKEYVRTRRALILEILIKAGSLKIEQIQDNLKKLGFDEVIETIENDIKGLINTGIFIEIKGRFYQLKDHILQFVIPNRGVTKQLVKSELEEKKSELRHKLKYVPHEYIELIEIARNSTQDRILEMKVMEFFMKVYGYRGKHLGGSRKPDGAIYTVGSPIDYGVIVDTKAYSGGYNLPIGQADEMQRYVEENQTRNKHINPNEWWKVYPSSVTEFKFLFVSGHFKGNYKAQLTRLNHITNCNGAVLSVEELLIGGEMIKAGTLTLEEVRRKFNNGEINF
As for B2, the Kd in data set [2] is 166 ± 73 nM.
